Sequences and labels used below:
B1: B21H4-53 (antibody, human IgG4 S228P, kappa, V domains shown)
VH: QVQLEESGGRLVQPGTSLRLSCAVSGFSLNTYAMTWVRQAPGKGLEWIGIIVASGGTYYASWAKGRFTISRDTSKNTLYLQITSLRAEDTATYFCARGGMGSDWGESLDAFDPWGQGTLVTVSS
VL: DIVMTQSPSSVSASVGDRVTITCQASGNIYSFLAWYQQKPGKAPKLLIYTASNLETGVPSRFSGSGSGTDFTLTISSLQPEDFATYYCLGGLYSSDVSYAFGGGTKVVIKR
notes: humanized IgG4/kappa, VH5+VL3; transfection supernatant
B2: B21H4-13 (antibody, human IgG4 S228P, kappa)
heavy: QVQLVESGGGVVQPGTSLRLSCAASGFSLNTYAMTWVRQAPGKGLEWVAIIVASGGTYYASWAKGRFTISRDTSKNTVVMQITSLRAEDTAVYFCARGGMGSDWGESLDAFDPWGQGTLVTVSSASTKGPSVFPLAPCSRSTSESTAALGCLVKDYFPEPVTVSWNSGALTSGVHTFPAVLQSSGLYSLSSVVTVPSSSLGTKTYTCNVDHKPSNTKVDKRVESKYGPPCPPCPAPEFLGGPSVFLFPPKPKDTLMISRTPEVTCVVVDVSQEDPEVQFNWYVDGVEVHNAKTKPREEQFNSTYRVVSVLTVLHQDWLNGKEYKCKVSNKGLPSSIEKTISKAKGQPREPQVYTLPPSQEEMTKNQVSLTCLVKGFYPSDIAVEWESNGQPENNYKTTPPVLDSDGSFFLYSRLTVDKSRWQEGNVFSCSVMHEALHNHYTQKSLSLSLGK
light: DIVMTQSPSSVSASVGDRVTITCQASGNIYSFLAWYQQKPGKAPKLLIYTASNLETGVPSRFSGSGSGTDFTLTISSLQPEDFATYYCLGGLYSSDVSYAFGGGTKVVIKRTVAAPSVFIFPPSDEQLKSGTASVVCLLNNFYPREAKVQWKVDNALQSGNSQESVTEQDSKDSTYSLSSTLTLSKADYEKHKVYACEVTHQGLSSPVTKSFNRGEC
notes: humanized IgG4/kappa, VH1+VL3; transfection supernatant
B3: B21H4-44 (antibody, human IgG4 S228P, kappa, V domains shown)
VH: EVQLVESGGGLVQPGGSLRLSCAASGFSLNTYAMTWVRQAPGKGLEWISIIVASGGTYYASWAKGRFTISRDNAKSSVYLQLTSLTTEDTAVYYCARGGMGSDWGESLDAFDPWGQGTMVTVSS
VL: DVVMTQSPSTVSASVGDRVTLTCQASGNIYSFLAWYQQKPGQPPKLLIYTASNLETGVPDRFSGSGSGTDYTLTISSLQADDFATYYCLGGLYSSDVSYAFGQGTKVEIKR
notes: humanized IgG4/kappa, VH4+VL4; transfection supernatant
B4: B21H4-54 (antibody, human IgG4 S228P, kappa, V domains shown)
VH: B1 VH
VL: B3 VL
notes: humanized IgG4/kappa, VH5+VL4; transfection supernatant
B5: B21H4-51 (antibody, human IgG4 S228P, kappa, V domains shown)
VH: B1 VH
VL: B1 VL with V3Q, S10T, V11L, D70E, F71Y, E81D, G103P, V108E
notes: humanized IgG4/kappa, VH5+VL1; transfection supernatant
B6: B21H4-45 (antibody, human IgG4 S228P, kappa)
heavy: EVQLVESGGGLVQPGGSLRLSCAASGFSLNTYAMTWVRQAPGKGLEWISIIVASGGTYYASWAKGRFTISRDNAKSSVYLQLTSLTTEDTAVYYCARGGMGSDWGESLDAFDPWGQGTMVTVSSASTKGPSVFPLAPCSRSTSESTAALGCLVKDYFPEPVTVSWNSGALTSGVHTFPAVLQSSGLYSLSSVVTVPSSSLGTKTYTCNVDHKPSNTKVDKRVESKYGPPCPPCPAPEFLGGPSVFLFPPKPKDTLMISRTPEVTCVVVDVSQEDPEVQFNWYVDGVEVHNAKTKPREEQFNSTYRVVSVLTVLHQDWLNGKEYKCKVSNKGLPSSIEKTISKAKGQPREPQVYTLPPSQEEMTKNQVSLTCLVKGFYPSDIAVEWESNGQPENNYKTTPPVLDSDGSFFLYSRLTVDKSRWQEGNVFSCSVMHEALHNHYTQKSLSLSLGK
light: DIQMTQTPSTVEASVGGTVTITCQASGNIYSFLAWYQQKPGQPPKLLIYTASNLETGVPSRFSGSGSGTEYTLTISGLQSDDAATYYCLGGLYSSDVSYAFGGGTEVVVKRTVAAPSVFIFPPSDEQLKSGTASVVCLLNNFYPREAKVQWKVDNALQSGNSQESVTEQDSKDSTYSLSSTLTLSKADYEKHKVYACEVTHQGLSSPVTKSFNRGEC
notes: humanized IgG4/kappa, VH4+VL5; transfection supernatant
B7: B21A4 (antibody, human IgG4 S228P, kappa)
heavy: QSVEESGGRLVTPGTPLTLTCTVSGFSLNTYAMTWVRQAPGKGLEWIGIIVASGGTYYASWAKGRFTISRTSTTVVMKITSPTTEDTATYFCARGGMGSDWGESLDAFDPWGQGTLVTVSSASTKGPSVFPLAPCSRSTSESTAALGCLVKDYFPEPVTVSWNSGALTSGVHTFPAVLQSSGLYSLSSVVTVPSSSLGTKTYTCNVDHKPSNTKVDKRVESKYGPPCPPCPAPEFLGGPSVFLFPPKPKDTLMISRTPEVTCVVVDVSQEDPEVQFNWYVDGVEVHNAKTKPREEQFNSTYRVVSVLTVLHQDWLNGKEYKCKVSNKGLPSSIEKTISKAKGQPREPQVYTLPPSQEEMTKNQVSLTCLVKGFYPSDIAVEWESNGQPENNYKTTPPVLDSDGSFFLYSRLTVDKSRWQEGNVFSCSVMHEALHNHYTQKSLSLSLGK
light: B6 light with Q3V, S9A, T10S, S14A, T22N, L78V, S80C
notes: Rabbit/human chimera, human IgG4/kappa; 3 is used here; also called B21A chimera IgG4; Clone B21A4
B8: B21H4-14 (antibody, human IgG4 S228P, kappa)
heavy: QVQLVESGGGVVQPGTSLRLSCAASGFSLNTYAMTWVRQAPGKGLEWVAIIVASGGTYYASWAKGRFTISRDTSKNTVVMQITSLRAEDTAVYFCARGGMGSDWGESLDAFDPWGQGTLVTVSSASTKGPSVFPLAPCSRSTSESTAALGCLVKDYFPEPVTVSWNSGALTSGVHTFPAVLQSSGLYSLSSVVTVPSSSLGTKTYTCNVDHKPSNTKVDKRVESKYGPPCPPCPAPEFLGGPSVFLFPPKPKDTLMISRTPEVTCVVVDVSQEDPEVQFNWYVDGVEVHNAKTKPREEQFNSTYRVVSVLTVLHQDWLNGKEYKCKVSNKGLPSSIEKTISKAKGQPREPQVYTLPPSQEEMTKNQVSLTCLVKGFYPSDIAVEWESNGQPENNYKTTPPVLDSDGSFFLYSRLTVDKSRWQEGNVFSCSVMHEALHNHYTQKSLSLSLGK
light: DVVMTQSPSTVSASVGDRVTLTCQASGNIYSFLAWYQQKPGQPPKLLIYTASNLETGVPDRFSGSGSGTDYTLTISSLQADDFATYYCLGGLYSSDVSYAFGQGTKVEIKRTVAAPSVFIFPPSDEQLKSGTASVVCLLNNFYPREAKVQWKVDNALQSGNSQESVTEQDSKDSTYSLSSTLTLSKADYEKHKVYACEVTHQGLSSPVTKSFNRGEC
notes: humanized IgG4/kappa, VH1+VL4; transfection supernatant

Among the data in patent publication US20250002577A1 (ONCORESPONSE, published 2025) are EC50 values, retold here.

Changes are numbered by the printed parent chain. Numbers in names are those of the source.

T2 sequence (Q8N423 22-461 limits assumed): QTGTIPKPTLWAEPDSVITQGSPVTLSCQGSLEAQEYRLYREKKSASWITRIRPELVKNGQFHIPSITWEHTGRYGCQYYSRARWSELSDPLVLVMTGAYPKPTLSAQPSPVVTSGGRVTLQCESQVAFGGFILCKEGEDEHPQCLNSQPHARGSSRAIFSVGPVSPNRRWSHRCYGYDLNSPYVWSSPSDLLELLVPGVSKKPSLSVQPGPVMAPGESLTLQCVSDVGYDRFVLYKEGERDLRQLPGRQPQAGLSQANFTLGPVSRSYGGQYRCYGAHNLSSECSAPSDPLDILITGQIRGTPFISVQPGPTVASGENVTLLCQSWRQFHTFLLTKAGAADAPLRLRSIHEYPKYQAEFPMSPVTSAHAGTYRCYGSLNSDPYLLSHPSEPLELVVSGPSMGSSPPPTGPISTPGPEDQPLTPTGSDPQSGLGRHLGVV

One experiment deals with T1, recombinant human LILRB1-His (human, UniProt Q8NHL6 24-458).
T1 construct: Bought protein; also called LILRB1 protein
T1 sequence (Q8NHL6 24-458 limits assumed): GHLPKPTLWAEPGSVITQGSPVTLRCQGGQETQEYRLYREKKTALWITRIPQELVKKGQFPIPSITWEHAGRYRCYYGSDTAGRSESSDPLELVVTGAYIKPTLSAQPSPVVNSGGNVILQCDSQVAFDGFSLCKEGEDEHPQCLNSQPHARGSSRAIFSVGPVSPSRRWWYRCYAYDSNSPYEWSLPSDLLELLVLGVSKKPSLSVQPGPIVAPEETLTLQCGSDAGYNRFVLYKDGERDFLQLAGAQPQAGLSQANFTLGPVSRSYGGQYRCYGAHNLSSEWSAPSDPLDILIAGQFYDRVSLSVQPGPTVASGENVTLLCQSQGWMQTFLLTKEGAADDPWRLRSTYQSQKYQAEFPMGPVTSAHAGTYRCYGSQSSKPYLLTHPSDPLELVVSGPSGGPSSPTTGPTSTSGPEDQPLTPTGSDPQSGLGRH
The experiment is described as follows: MSD ELISA, coated antigen, transfection supernatant. The procedure: (§1) To confirm binding to human LILRB1 and human LILRB2, transfection supernatants (obtained in Example 2) were evaluated for binding by ELISA. The conditioned media from these transient transfections were assayed for human IgG concentration by AlphaLISA® immunoassay (PerkinElmer, No. AL310C) (Table 4). A plate-based MSD ELISA was performed in which human LILRB1-His or LILRB2-His was immobilized, and binding of transfection supernatants of humanized mAb variants was detected via an anti-human IgG Sulfo-tag-labeled secondary antibody. The IgG1 version of the parental rabbit/human chimera (designated B21A1) transfection served as the benchmark EC₅₀ positive control.
(§2) Recombinant human and cynomolgus LILRB1 proteins (R&D Systems, No. 8989-T2-050; ACROBiosystems, No. CDJ-C52H3) and recombinant human and cynomolgus LILRB2 proteins (ACROBiosystems, No. LI2-H5220; No. L12-C52H3) were diluted in PBS to 4 μg/mL and added to a multi-array 384-well high-binding plates (MSD, No. L21XA4) at 10 μL/well and incubated at 4° C. overnight. The plates were washed several times with Wash Buffer (0.05% Tween® 20 in PBS), using a microplate washer and then blocked with 70 μL/well of 5% BSA in PBS for 1 hour (h) at room temperature (RT) with shaking at 700 rpm. After blocking, 20 μL/well of anti-LILRB2/LILRB1 antibodies or isotype control were added to the plates, and the plates were sealed and incubated for 2 h at RT with shaking at 700 rpm. After primary antibody binding, plates were washed five times with 70 μL/well of Wash Buffer (0.05% Tween® 20 in PBS) using a microplate washer. Secondary detection antibody (SULFO-TAG™-labeled goat anti-human IgG antibody (MSD, No. R32AJ-1)) was diluted to 4 μg/mL in assay diluent (1% BSA in PBS) and 10 μL/well was added to plates and incubated at RT protected from light for 1 h, with shaking at 700 rpm. Following incubation, plates were washed five times with Wash Buffer, using a microplate washer. After removal of the final wash, 35 μL/well of MSD Gold Read Buffer B (MSD, No. R60AM-4) was added to all wells using a Multidrop combo washer/dispenser, and plates were read using MESO Sector 600MM instrument (MSD) within 5 minutes (min) after addition of Read Buffer. Signals as counts per minute (cpm) were recorded.
Background: An ELISA detects its analyte on a solid surface through an enzyme-linked reagent.
Usually EC50 stands for the midpoint of the concentration-response curve. Take B1: the EC50 turned out to be 4.7 ng/mL.
Same read-out and setting: the result for B2 reads 1.5 ng/mL; that for B3, 3.23 ng/mL; that for B4, 4.85 ng/mL.
On the same count and under the same terms, the result for B5 reads 3.88 ng/mL; that for B6, 4.7 ng/mL; that for B7, 3.73 ng/mL.
On the same count and under the same terms, the result for B8 reads 1.3 ng/mL.

A further experiment addresses T2, recombinant human LILRB2-His (human, UniProt Q8N423 22-461, limits assumed).
T2 construct: Bought protein; also called LILRB2 protein
The description is as above. The procedure: as §1, §2
On to B1, for which the EC50 is 1.67 ng/mL.
Same read-out and setting: the value for B2 was 1.01 ng/mL; that for B3 was 1.63 ng/mL; that for B4 was 2.75 ng/mL.
As to B5, the EC50 turned out to be 2.51 ng/mL.
On the same count and under the same terms, the result for B6 reads 0.26 ng/mL; that for B7, 2.63 ng/mL.
On the same count and under the same terms, the result for B8 reads 1.46 ng/mL.
